Data taken from patent US7718385B2, “Bioactivation of alkylating agents for cancer treatment” (priority 2003, dated 2010).

Substrate: CC1=C(CO)C2=C(C)C3(CC3)[C@@](C)(O)C(=O)C2=C1
Test: purified protein, by the assay type
Details: other: formation of Product 8; 37.0 °C

B1: recombinant rat AOR (Rattus norvegicus; Q160G/Q263G/Q264G/Q276G) (protein)
chain: MVQAKTWTLKKHFEGFPTDSNFELRTTELPPLNNGEVLLEALFLSVDPYMRVAAKKLKEGDSMMGEQVARVVESKNSAFPTGTIVVALLGWTSHSISDGNGLRKLPAEWPDKLPLSLALGTVGMPGLTAYFGLLDICGLKGGETVLVNAAAGAVGSVVGGIAKLKGCKVVGTAGSDEKVAYLKKLGFDVAFNYKTVKSLEEALRTASPDGYDCYFDNVGGEFSNTVILQMKTFGRIAICGAISQYNRTGPCPPGPSPEVIIYGGLRMEGFIVTRWGGEVRQKALTDLMNWVSEGKIRYHEYITEGFEKMPAAFMGMLKGDNLGKTIVKA
- Km: 145 µM
- Vmax: 0.275 µmol/min/mg
